From US20260216326A1 (PROMETHEUS BIOSCIENCES, published 2026)
Each block holds one binder with its values, some of them ahead of it.

B6: recombinant human TL1A protein (tumor necrosis factor-like cytokine 1A) (ligand, UniProt O95150 72-251, looked up)
chain: LKGQEFAPSHQQVYAPLRADGDKPRAHLTVVRQTPTQHFKNQFPALHWEHELGLAFTKNRMNYTNKFLLIPESGDYFIYSQVTFRGMTSECSEIRQAGRPNKPDSITVVITKVTDSYPEPTQLLMGTKSVCEVGSNWFQPIYLGAMFSLQEGDKLMVNVSDISLVDYTKEDKTFFGAFLL
notes: Recombinant protein used in ELISA, SPR and the TF-1 caspase assay; also called TNFSF15; soluble TL1A

Assays:
[1] = target: T1, recombinant TL1A antigen (UniProt O95150 72-251, limits assumed); test: ELISA titration against recombinant TL1A antigen
T1 sequence (looked up): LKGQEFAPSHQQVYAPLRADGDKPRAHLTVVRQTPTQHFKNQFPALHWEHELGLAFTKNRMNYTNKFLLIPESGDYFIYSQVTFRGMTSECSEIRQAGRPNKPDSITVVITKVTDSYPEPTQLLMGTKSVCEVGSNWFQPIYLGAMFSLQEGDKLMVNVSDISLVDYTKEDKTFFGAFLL

[2] = target: T2, TL1A in human blood (human, UniProt O95150 72-251, limits assumed); test: cell-based or functional assay
T2 sequence (looked up): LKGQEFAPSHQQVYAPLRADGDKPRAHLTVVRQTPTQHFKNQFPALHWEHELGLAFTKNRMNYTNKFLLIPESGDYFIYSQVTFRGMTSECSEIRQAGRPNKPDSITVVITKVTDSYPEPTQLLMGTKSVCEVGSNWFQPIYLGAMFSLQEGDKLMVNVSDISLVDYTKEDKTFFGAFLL

[3] = target: T2, TL1A in human blood; test: cell-based or functional assay; remark: listed apart in the source
[4] = target: T3, human TL1A (human, UniProt O95150 72-251, limits assumed); test: ELISA titration on plate-coated human TL1A, unpurified culture supernatant
T3 construct: also called tumor necrosis factor-like cytokine 1A; TNFSF15
T3 sequence (looked up): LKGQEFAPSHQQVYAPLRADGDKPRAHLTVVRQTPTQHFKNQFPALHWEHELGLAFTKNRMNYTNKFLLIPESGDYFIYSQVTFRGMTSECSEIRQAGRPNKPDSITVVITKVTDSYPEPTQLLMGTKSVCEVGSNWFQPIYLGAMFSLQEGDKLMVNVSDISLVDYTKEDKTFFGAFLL

[5] = target: TNFSF10 (TRAIL) (human, UniProt P50591 114-281, limits assumed); test: ELISA
Excerpt: (§1) TL1A is the only known ligand for its functional receptor DR3. TL1A is also capable of binding to Decoy receptor 3 (DcR3), a soluble TNF receptor without a transmembrane domain.

[6] = target: TNFSF14 (LIGHT) (UniProt O43557 74-240, limits assumed); test: ELISA
Excerpt: as §1

[7] = target: T4, TNFSF6 (FasL) (human, UniProt P48023 134-281, limits assumed); test: ELISA
T4 sequence (looked up): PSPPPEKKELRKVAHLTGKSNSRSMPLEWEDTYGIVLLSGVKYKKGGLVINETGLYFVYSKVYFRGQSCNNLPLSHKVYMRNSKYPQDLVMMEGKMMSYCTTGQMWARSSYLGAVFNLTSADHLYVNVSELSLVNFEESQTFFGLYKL
Excerpt: as §1

[8] = target: T5, mouse recombinant TL1A protein (mouse, UniProt Q5UBV8 76-252, limits assumed); test: ELISA, titration of the antibody on recombinant mouse TL1A, A450 nm against [Ab] (nM), log axis
T5 construct: also called mouse TL1A; murine TL1A
T5 sequence (looked up): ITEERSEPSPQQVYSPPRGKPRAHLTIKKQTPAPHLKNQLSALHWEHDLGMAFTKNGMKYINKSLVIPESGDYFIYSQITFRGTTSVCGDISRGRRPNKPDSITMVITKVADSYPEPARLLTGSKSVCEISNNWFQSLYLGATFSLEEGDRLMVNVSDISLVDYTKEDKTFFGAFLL
Protocol: (§2) ELISA for each protein was performed at least three times. The data from a representative experiment are shown and are mean±SD. Abbreviations: A=absorbance, Ab=antibody, Cyno=cynomolgus, nm=nanometer, nM=nanomolar. […] Samples were assayed in triplicate, on two separate occasions. Data presented are the mean TL1A concentrations of three animals per group±SD.

[9] = target: T6, cynomolgus monkey TL1A protein (cynomolgus monkey, UniProt G7PRK8 72-251); test: cell-based or functional assay
T6 sequence: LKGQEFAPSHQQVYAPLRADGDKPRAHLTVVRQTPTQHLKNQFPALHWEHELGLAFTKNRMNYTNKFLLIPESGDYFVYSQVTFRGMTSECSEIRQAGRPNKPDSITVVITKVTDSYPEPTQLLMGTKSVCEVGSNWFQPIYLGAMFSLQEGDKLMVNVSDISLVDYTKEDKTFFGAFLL

[10] = target: T6, cynomolgus monkey TL1A protein; test: ELISA on recombinant TL1A protein; cynomolgus monkey TL1A
[11] = target: T7, rat recombinant TL1A protein (rat, UniProt Q8K3Y7 76-252, limits assumed); test: ELISA, titration of the antibody on recombinant rat TL1A, A450 nm against [Ab] (nM), log axis
T7 construct: also called rat TL1A
T7 sequence (looked up): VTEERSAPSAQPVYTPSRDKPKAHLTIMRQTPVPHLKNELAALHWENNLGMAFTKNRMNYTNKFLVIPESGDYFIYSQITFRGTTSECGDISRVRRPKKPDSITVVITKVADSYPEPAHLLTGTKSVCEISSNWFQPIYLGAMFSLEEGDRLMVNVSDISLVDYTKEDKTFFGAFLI
Protocol: as §2

[12] = target: T6, cynomolgus monkey TL1A protein; test: surface plasmon resonance (SPR), recombinant TL1A protein
[13] = target: B6; test: as above
[14] = target: T8, membrane-bound human TL1A on TNFSF15/HEK293 cells (human, UniProt O95150 1-251); test: binding to TNFSF15/HEK293 cells stably transfected with human TL1A
T8 construct: whole, on cells; also called membrane-associated TL1A
T8 sequence (looked up): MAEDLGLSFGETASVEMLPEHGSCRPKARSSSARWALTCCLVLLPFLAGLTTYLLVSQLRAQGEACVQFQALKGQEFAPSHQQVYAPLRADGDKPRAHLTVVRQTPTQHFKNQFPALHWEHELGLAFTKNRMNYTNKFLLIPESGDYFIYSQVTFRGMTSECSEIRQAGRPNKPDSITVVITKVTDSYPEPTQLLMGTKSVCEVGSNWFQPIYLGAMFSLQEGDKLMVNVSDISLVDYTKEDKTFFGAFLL

[15] = target: T9, Murine TL1A (mouse, UniProt Q5UBV8 76-252, limits assumed); test: not named in the table (TL1A binding affinity row)
T9 construct: also called mouse TL1A
T9 sequence (looked up): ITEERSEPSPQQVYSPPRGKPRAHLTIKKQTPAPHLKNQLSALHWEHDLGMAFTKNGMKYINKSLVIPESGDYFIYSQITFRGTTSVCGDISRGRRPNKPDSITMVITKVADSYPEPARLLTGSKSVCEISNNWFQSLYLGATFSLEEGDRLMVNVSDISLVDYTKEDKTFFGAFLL

[16] = target: T3, human TL1A; test: method not given; three independent measurements, +/- standard deviation
[17] = target: T10, Cynomolgus TL1A (cynomolgus monkey, UniProt G7PRK8 72-251); test: as above
T10 construct: also called cynomolgus monkey TL1A
T10 sequence: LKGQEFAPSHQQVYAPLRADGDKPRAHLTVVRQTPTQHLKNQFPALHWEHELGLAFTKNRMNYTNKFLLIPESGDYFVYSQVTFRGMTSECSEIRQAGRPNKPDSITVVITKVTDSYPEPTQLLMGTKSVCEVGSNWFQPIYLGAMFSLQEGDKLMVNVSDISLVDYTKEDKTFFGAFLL

[18] = target: T11, TNFSF6 (FasL) (human, UniProt P48023 134-281, limits assumed); test: not named in the table (specificity row)
T11 sequence (looked up): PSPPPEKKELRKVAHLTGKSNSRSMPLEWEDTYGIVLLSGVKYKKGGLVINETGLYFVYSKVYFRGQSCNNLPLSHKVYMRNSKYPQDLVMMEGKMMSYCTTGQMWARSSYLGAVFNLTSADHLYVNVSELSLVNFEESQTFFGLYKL
Excerpt: as §1

[19] = target: T12, TNFSF10 (human, UniProt P50591 114-281, limits assumed); test: not named in the table (specificity row)
T12 construct: also called TRAIL
Excerpt: as §1

[20] = target: T13, DR3 (Death Receptor 3) natively expressed on human TF-1 cells (human, UniProt Q93038 25-417); test: TF-1 cell caspase activation assay
T13 construct: whole, on cells; also called TNFRSF25
T13 sequence (looked up): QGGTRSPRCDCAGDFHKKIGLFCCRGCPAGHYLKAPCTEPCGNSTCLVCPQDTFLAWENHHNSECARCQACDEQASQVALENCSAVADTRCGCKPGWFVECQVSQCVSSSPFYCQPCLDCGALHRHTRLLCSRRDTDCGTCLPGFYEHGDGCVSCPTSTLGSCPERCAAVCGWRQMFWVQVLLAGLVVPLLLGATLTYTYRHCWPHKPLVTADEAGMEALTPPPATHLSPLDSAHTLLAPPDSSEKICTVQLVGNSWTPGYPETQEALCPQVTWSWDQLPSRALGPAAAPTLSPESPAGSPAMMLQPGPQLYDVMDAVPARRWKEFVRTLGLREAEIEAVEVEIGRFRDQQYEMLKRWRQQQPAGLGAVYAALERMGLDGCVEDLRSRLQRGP
Excerpt: TF-1 cells are human erythroleukemic cells that natively express DR3, the functional receptor for TL1A.

TNFSF14 (LIGHT), sequence (O43557 74-240 limits assumed): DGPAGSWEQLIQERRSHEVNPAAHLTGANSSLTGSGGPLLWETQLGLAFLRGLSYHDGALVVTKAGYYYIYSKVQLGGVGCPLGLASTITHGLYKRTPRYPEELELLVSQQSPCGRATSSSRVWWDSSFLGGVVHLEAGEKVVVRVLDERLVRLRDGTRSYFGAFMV
T12 sequence (P50591 114-281 limits assumed): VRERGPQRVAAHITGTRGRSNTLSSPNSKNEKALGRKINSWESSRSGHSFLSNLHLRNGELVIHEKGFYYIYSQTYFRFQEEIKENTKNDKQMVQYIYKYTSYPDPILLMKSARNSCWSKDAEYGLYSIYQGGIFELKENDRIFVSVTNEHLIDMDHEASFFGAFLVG
TNFSF10 (TRAIL), sequence (P50591 114-281 limits assumed): as above

EC50 [1]: 0.252 nM
B1: anti-TL1A antibody with heavy chain SEQ ID NO: 380 (IgG4, S228P, F234A, L235A; Fc SEQ ID NO: 367) and light chain SEQ ID NO: 381 (antibody)
heavy: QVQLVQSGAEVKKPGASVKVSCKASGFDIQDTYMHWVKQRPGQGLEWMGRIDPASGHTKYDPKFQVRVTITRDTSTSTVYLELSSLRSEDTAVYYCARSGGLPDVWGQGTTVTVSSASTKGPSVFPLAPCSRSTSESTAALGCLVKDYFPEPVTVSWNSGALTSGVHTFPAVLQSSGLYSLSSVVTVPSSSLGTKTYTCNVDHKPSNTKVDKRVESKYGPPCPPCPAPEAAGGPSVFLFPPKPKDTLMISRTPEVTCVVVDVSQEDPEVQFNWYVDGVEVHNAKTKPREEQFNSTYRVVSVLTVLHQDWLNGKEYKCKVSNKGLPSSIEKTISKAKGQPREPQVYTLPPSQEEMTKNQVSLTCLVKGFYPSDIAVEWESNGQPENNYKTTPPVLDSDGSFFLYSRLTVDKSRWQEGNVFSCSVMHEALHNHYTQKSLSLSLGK
light: EIVLTQSPGTLSLSPGERATLSCRASSSVSYMYWYQQKPGQAPRPLIYATSNLASGIPDRFSGSGSGTDFTLTISRLEPEDFAVYYCQQWEGNPRTFGGGTKLEIKRTVAAPSVFIFPPSDEQLKSGTASVVCLLNNFYPREAKVQWKVDNALQSGNSQESVTEQDSKDSTYSLSSTLTLSKADYEKHKVYACEVTHQGLSSPVTKSFNRGEC

% Inhibition at 1 nM Ig; interferon gamma release in human blood [2]: 46.8%
% Inhibition at 10 nM Ig; interferon gamma release in human blood [2]: 71.2%
IC50 values, Mean; inhibition of interferon gamma release from multiple human donors [3]: 51.3
Kd [4]: 0.05 nM
B2: A212 (antibody, IgG1, V domains shown)
VH: QVQLVQSGAEVKKPGASVKVSCKASGFDIQDTYMHWVRQRPGQGLEWIGRIDPASGHTKYDPKFQVRATITTDTSTSTAYLELSSLRSEDTAVYYCARSGGLPDVWGQGTTVTVSS
VL: EIVLTQSPGTLSLSPGERATLSCRASSSVSYMYWYQQKPGQAPRPLIYATSNLASGIPDRFSGSGSGTDFTLTISRLEPEDFAVYYCQQWEGNPRTFGGGTKLEIK

binding result [5]: no binding
binding result [6]: no binding
binding result [7]: no binding
binding result [8]: no binding (tested: about 30 nM)
IC50 of inhibition of TL1A-induced caspase activation in cycloheximide-treated TF-1 cells [9]: 0.59 nM
mean IC50 of inhibition of IFN-gamma release in monkey whole blood stimulated with immune complex, IL-12 and IL-18 [9]: 1.54 nM
EC50 [10]: 0.47 nM
binding result [11]: no binding (tested: about 30 nM)
Kd [12]: 0.04 nM
EC50 [14]: 17.4 nM
B3: anti-TL1A antibody A219 (antibody, V domains shown)
VH: QVQLVQSGAEVKKPGASVKVSCKASGFDIQDTYMHWVKQRPGQGLEWMGRIDPASGHTKYDPKFQVRVTITRDTSTSTVYLELSSLRSEDTAVYYCARSGGLPDVWGQGTTVTVSS
VL: EIVLTQSPGTLSLSPGERATLSCRASSSVSYMYWYQQKPGQAPRPLIYATSNLASGIPDRFSGSGSGTDFTLTISRLEPEDFAVYYCQQWEGNPRTFGGGTKLEIK
notes: Humanized monoclonal IgG1 with a kappa light chain, designed to abolish effector functions
Kd [13]: 0.06 nM

% Inhibition at 1 nM Ig; interferon gamma release in human blood [2]: 48.6%
% Inhibition at 10 nM Ig; interferon gamma release in human blood [2]: 69.8%
IC50 values, Mean; inhibition of interferon gamma release from multiple human donors [3]: 46.8
Kd [4]: 0.049 nM
B4: A213 (antibody, IgG1, V domains shown)
VH: QVQLVQSGAEVKKPGASVKVSCKASGFDIQDTYMHWVRQRPGQGLEWMGRIDPASGHTKYDPKFQVRVTITTDTSTSTVYMELSSLRSEDTAVYYCARSGGLPDVWGQGTTVTVSS
VL: EIVLTQSPGTLSLSPGERATLSCRASSSVSYMYWYQQKPGQAPRPLIYATSNLASGIPDRFSGSGSGTDFTLTISRLEPEDFAVYYCQQWEGNPRTFGGGTKLEIK

binding result [15]: no binding
Kd [16]: 0.059 nM
Kd [17]: 0.0363 nM
% Inhibition at 1 nM Ig; interferon gamma release in human blood [2]: 59.8%
% Inhibition at 10 nM Ig; interferon gamma release in human blood [2]: 75.2%
binding result [18]: no binding
binding result [19]: no binding
IC50 values, Mean; inhibition of interferon gamma release from multiple human donors [3]: 48.6
Kd [4]: 0.05 nM
B5: A219 (antibody, V domains shown)
VH: QVQLVQSGAEVKKPGASVKVSCKASGFDIQDTYMHWVKQRPGQGLEWMGRIDPASGHTKYDPKFQVRVTITRDTSTSTVYLELSSLRSEDTAVYYCARSGGLPDVWGQGTTVTVSS
VL: EIVLTQSPGTLSLSPGERATLSCRASSSVSYMYWYQQKPGQAPRPLIYATSNLASGIPDRFSGSGSGTDFTLTISRLEPEDFAVYYCQQWEGNPRTFGGGTKLEIK
notes: IgG1

Binder: B6
binding result [20]: binds
